Like-named read-outs stand apart in the source and are kept apart here.
Experiments:
Experiment in all cases: SPR
mouse Wnt3a [1] = target: T1, mouse Wnt3a (mouse, UniProt P27467 19-352)
mouse Wnt3a [2] = target: T1, mouse Wnt3a; remark: listed apart in the source
mouse Wnt3a [3] = target: T1, mouse Wnt3a; remark: listed apart in the source
mouse Wnt3a [4] = target: T1, mouse Wnt3a; remark: listed apart in the source
mouse Wnt3a [5] = target: T1, mouse Wnt3a; remark: listed apart in the source

T1 sequence (P27467 19-352): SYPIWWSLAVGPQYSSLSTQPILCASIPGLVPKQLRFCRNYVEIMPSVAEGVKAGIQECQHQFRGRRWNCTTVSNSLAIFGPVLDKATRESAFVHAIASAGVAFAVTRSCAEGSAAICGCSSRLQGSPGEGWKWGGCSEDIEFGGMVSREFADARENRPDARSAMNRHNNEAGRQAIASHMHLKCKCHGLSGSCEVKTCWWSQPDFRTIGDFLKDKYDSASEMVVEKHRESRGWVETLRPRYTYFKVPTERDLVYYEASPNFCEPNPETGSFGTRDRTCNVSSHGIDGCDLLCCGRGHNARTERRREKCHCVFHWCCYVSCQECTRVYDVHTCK

| Kd (mouse Wnt3a [1]) [µM] | Binder | also measured |
| --- | --- | --- |
| 0.9 | WIF-1_(EGFs I-V) (human WIF-1 residues 178-346) (domain or fragment, UniProt Q9Y5W5 178-346, looked up) QQAECPGGCRNGGFCNERRICECPDGFHGPHCEKALCTPRCMNGGLCVTPGFCICPPGFYGVNCDKANCSTTCFNGGTCFYPGKCICPPGLEGEQCEISKCPQPCRNGGKCIGKSKCKCSKGYQGDLCSKPVCEPGCGAHGTCHEPNKCQCQEGWHGRHCNKRYEASLI | – |
| 3.4 | WIF-1WD (WIF domain of human Wnt inhibitory factor 1, residues 35-178) (domain or fragment, UniProt Q9Y5W5 35-178, looked up) SLYLWIDAHQARVLIGFEEDILIVSEGKMAPFTHDFRKAQQRMPAIPVNIHSMNFTWQAAGQAEYFYEFLSLRSLDKGIMADPTVNVPLLGTVPHKASVVQVGFPCLGKQDGVAAFEVDVIVMNSEGNTILKTPQNAIFFKTCQ | – |
| 0.0216 | WIF-1ΔC (human WIF-1 residues 35-346) (domain or fragment, UniProt Q9Y5W5 35-346, looked up) SLYLWIDAHQARVLIGFEEDILIVSEGKMAPFTHDFRKAQQRMPAIPVNIHSMNFTWQAAGQAEYFYEFLSLRSLDKGIMADPTVNVPLLGTVPHKASVVQVGFPCLGKQDGVAAFEVDVIVMNSEGNTILKTPQNAIFFKTCQQAECPGGCRNGGFCNERRICECPDGFHGPHCEKALCTPRCMNGGLCVTPGFCICPPGFYGVNCDKANCSTTCFNGGTCFYPGKCICPPGLEGEQCEISKCPQPCRNGGKCIGKSKCKCSKGYQGDLCSKPVCEPGCGAHGTCHEPNKCQCQEGWHGRHCNKRYEASLI | – |
| 0.217 | WIF-1ΔC Met77Trp (domain or fragment, human, UniProt Q9Y5W5 35-346, looked up) SLYLWIDAHQARVLIGFEEDILIVSEGKMAPFTHDFRKAQQRWPAIPVNIHSMNFTWQAAGQAEYFYEFLSLRSLDKGIMADPTVNVPLLGTVPHKASVVQVGFPCLGKQDGVAAFEVDVIVMNSEGNTILKTPQNAIFFKTCQQAECPGGCRNGGFCNERRICECPDGFHGPHCEKALCTPRCMNGGLCVTPGFCICPPGFYGVNCDKANCSTTCFNGGTCFYPGKCICPPGLEGEQCEISKCPQPCRNGGKCIGKSKCKCSKGYQGDLCSKPVCEPGCGAHGTCHEPNKCQCQEGWHGRHCNKRYEASLI | – |
| 5.6 | WIF-1_(WD-EGF-I) (human WIF-1 residues 35-210) (domain or fragment, UniProt Q9Y5W5 35-210, looked up) SLYLWIDAHQARVLIGFEEDILIVSEGKMAPFTHDFRKAQQRMPAIPVNIHSMNFTWQAAGQAEYFYEFLSLRSLDKGIMADPTVNVPLLGTVPHKASVVQVGFPCLGKQDGVAAFEVDVIVMNSEGNTILKTPQNAIFFKTCQQAECPGGCRNGGFCNERRICECPDGFHGPHCE | Kd (mouse Wnt3a [2]): 15.9 µM; Kd (mouse Wnt3a [3]): 16.9 µM; Kd (mouse Wnt3a [4]): 9.86 µM; Kd (mouse Wnt3a [5]): 16.8 µM |
| 2.86 | WIF-1_(WD-EGF-I) Met77Trp (domain or fragment, human, UniProt Q9Y5W5 35-210, looked up) SLYLWIDAHQARVLIGFEEDILIVSEGKMAPFTHDFRKAQQRWPAIPVNIHSMNFTWQAAGQAEYFYEFLSLRSLDKGIMADPTVNVPLLGTVPHKASVVQVGFPCLGKQDGVAAFEVDVIVMNSEGNTILKTPQNAIFFKTCQQAECPGGCRNGGFCNERRICECPDGFHGPHCE | – |
| 3.21 | WIF-1_(WD-EGFs I-III) (human WIF-1 residues 35-274) (domain or fragment, UniProt Q9Y5W5 35-274, looked up) SLYLWIDAHQARVLIGFEEDILIVSEGKMAPFTHDFRKAQQRMPAIPVNIHSMNFTWQAAGQAEYFYEFLSLRSLDKGIMADPTVNVPLLGTVPHKASVVQVGFPCLGKQDGVAAFEVDVIVMNSEGNTILKTPQNAIFFKTCQQAECPGGCRNGGFCNERRICECPDGFHGPHCEKALCTPRCMNGGLCVTPGFCICPPGFYGVNCDKANCSTTCFNGGTCFYPGKCICPPGLEGEQCE | – |

— publication PMC3430870 (Nature structural & molecular biology, 2011)
